Sequences and labels used below:
B1: SH3BP2 peptide 408-423 (SH3 domain-binding protein 2), 16-mer library wild type / TNKS ANK (TNKS 12 ANK repeats, residues 174-649) (parent complex)
chain 1: PQLPHLQRSPPDGQSF
chain 2: TGVPAVSGALRELLEACRNGDVSRVKRLVDAANVNAKDMAGRKSSPLHFAAGFGRKDVVEHLLQMGANVHARDDGGLIPLHNACSFGHAEVVSLLLCQGADPNARDNWNYTPLHEAAIKGKIDVCIVLLQHGADPNIRNTDGKSALDLADPSAKAVLTGEYKKDELLEAARSGNEEKLMALLTPLNVNCHASDGRKSTPLHLAAGYNRVRIVQLLLQHGADVHAKDKGGLVPLHNACSYGHYEVTELLLKHGACVNAMDLWQFTPLHEAASKNRVEVCSLLLSHGADPTLVNCHGKSAVDMAPTPELRERLTYEFKGHSLLQAAREADLAKVKKTLALEIINFKQPQSHETALHCAVASLHPKRKQVTELLLRKGANVNEKNKDFMTPLHVAAERAHNDVMEVLHKHGAKMNALDTLGQTALHRAALAGHLQTCRLLLSYGSDPSIISLQGFTAAQMGNEAVQQILSESTPIRTSD

In this test the parent is B1. As to the kind of experiment: proteomic peptide phage display deep mutational scan (ProP-PD DMS): M13 P8 16-mer library selected against immobilised GST-tagged bait for four days (rounds), NGS of the eluted pools per day and pseudo-replica; bait immobilised on MaxiSorp plates (10 µg), library pre-cleared on GST, 2 h binding at 4 °C, five washes; one round per day, days 1-4; value from days 2 and 3.
Regarding chain 1 PQLPHLQRSPPDGYSF [chain 1 Q14Y], the screen value was 0.000878 average fractional NGS count over selection days 2 and 3 (reads of this peptide / all reads for the bait, averaged over ….

As for chain 1 PQLPHLQRSPPDGSSF [chain 1 Q14S], the screen value was 0.0015 average fractional NGS count over selection days 2 and 3 (reads of this peptide / all reads for the bait, averaged over ….

Take chain 1 PQLPHLQRSPPDGVSF [chain 1 Q14V]: the screen value is 0.00071 average fractional NGS count over selection days 2 and 3 (reads of this peptide / all reads for the bait, averaged over ….

In the case of chain 1 PQLPHLQRSPPDGESF [chain 1 Q14E], the screen value was 0.000266 average fractional NGS count over selection days 2 and 3 (reads of this peptide / all reads for the bait, averaged over ….

Regarding chain 1 PQLPHLQRSPPDGMSF [chain 1 Q14M], the screen value is 0.00362 average fractional NGS count over selection days 2 and 3 (reads of this peptide / all reads for the bait, averaged over ….

For chain 1 PQLPHLQRSPPDGISF [chain 1 Q14I], the screen value was 0.000236 average fractional NGS count over selection days 2 and 3 (reads of this peptide / all reads for the bait, averaged over ….

On to chain 1 PQLPHLQRSPPDGGSF [chain 1 Q14G], for which the screen value is 0.000379 average fractional NGS count over selection days 2 and 3 (reads of this peptide / all reads for the bait, averaged over ….

As for chain 1 PQLVHLQRSPPDGQSF [chain 1 P4V], the screen value was 0.000162 average fractional NGS count over selection days 2 and 3 (reads of this peptide / all reads for the bait, averaged over ….

Turning to chain 1 PQLLHLQRSPPDGQSF [chain 1 P4L], the screen value is 0.000189 average fractional NGS count over selection days 2 and 3 (reads of this peptide / all reads for the bait, averaged over ….

With chain 1 PQLSHLQRSPPDGQSF [chain 1 P4S], the screen value was 0.000214 average fractional NGS count over selection days 2 and 3 (reads of this peptide / all reads for the bait, averaged over ….

For chain 1 PQLIHLQRSPPDGQSF [chain 1 P4I], the screen value is 0.000387 average fractional NGS count over selection days 2 and 3 (reads of this peptide / all reads for the bait, averaged over ….

As for chain 1 PQLDHLQRSPPDGQSF [chain 1 P4D], the screen value is 0.000447 average fractional NGS count over selection days 2 and 3 (reads of this peptide / all reads for the bait, averaged over ….

For the variant chain 1 PQLWHLQRSPPDGQSF [chain 1 P4W], the screen value was 0.000229 average fractional NGS count over selection days 2 and 3 (reads of this peptide / all reads for the bait, averaged over ….

chain 1 PQLMHLQRSPPDGQSF [chain 1 P4M]: the screen value is 0.00173 average fractional NGS count over selection days 2 and 3 (reads of this peptide / all reads for the bait, averaged over ….

As to chain 1 PQLAHLQRSPPDGQSF [chain 1 P4A], the screen value is 0.00484 average fractional NGS count over selection days 2 and 3 (reads of this peptide / all reads for the bait, averaged over ….

Turning to chain 1 PQLEHLQRSPPDGQSF [chain 1 P4E], the screen value is 0.000494 average fractional NGS count over selection days 2 and 3 (reads of this peptide / all reads for the bait, averaged over ….

For the variant chain 1 PQLHHLQRSPPDGQSF [chain 1 P4H], the screen value was 0.00111 average fractional NGS count over selection days 2 and 3 (reads of this peptide / all reads for the bait, averaged over ….

As to chain 1 PQLQHLQRSPPDGQSF [chain 1 P4Q], the screen value is 0.000351 average fractional NGS count over selection days 2 and 3 (reads of this peptide / all reads for the bait, averaged over ….

Regarding chain 1 PQLPHLQRSPPIGQSF [chain 1 D12I], the screen value was 0.000718 average fractional NGS count over selection days 2 and 3 (reads of this peptide / all reads for the bait, averaged over ….

Turning to chain 1 PQLPHLQRSPPMGQSF [chain 1 D12M], the screen value is 0.000556 average fractional NGS count over selection days 2 and 3 (reads of this peptide / all reads for the bait, averaged over ….

As to chain 1 PQLPHLQRSPPSGQSF [chain 1 D12S], the screen value was 0.000143 average fractional NGS count over selection days 2 and 3 (reads of this peptide / all reads for the bait, averaged over ….

On to chain 1 PQLPHLQRSPPQGQSF [chain 1 D12Q], for which the screen value is 0.000387 average fractional NGS count over selection days 2 and 3 (reads of this peptide / all reads for the bait, averaged over ….

For chain 1 PQLPHLQRSPPEGQSF [chain 1 D12E], the screen value was 0.00128 average fractional NGS count over selection days 2 and 3 (reads of this peptide / all reads for the bait, averaged over ….

For chain 1 PQPPHLQRSPPDGQSF [chain 1 L3P], the screen value is 0.000341 average fractional NGS count over selection days 2 and 3 (reads of this peptide / all reads for the bait, averaged over ….

Consider chain 1 PQEPHLQRSPPDGQSF [chain 1 L3E], for which the screen value is 0.00036 average fractional NGS count over selection days 2 and 3 (reads of this peptide / all reads for the bait, averaged over ….

Consider chain 1 PQNPHLQRSPPDGQSF [chain 1 L3N], for which the screen value was 0.000433 average fractional NGS count over selection days 2 and 3 (reads of this peptide / all reads for the bait, averaged over ….

For the variant chain 1 PQAPHLQRSPPDGQSF [chain 1 L3A], the screen value is 0.000216 average fractional NGS count over selection days 2 and 3 (reads of this peptide / all reads for the bait, averaged over ….

Consider chain 1 PQTPHLQRSPPDGQSF [chain 1 L3T], for which the screen value is 0.000337 average fractional NGS count over selection days 2 and 3 (reads of this peptide / all reads for the bait, averaged over ….

As to chain 1 PQVPHLQRSPPDGQSF [chain 1 L3V], the screen value is 0.000203 average fractional NGS count over selection days 2 and 3 (reads of this peptide / all reads for the bait, averaged over ….

Consider chain 1 PQRPHLQRSPPDGQSF [chain 1 L3R], for which the screen value is 0.000308 average fractional NGS count over selection days 2 and 3 (reads of this peptide / all reads for the bait, averaged over ….

Take chain 1 PQIPHLQRSPPDGQSF [chain 1 L3I]: the screen value was 0.000205 average fractional NGS count over selection days 2 and 3 (reads of this peptide / all reads for the bait, averaged over ….

As for chain 1 PQMPHLQRSPPDGQSF [chain 1 L3M], the screen value is 0.000961 average fractional NGS count over selection days 2 and 3 (reads of this peptide / all reads for the bait, averaged over ….

In the case of chain 1 PQSPHLQRSPPDGQSF [chain 1 L3S], the screen value was 0.000201 average fractional NGS count over selection days 2 and 3 (reads of this peptide / all reads for the bait, averaged over ….

With chain 1 PQLPHLQRFPPDGQSF [chain 1 S9F], the screen value was 0.00032 average fractional NGS count over selection days 2 and 3 (reads of this peptide / all reads for the bait, averaged over ….

As for chain 1 PQLPHLQRPPPDGQSF [chain 1 S9P], the screen value was 0.000122 average fractional NGS count over selection days 2 and 3 (reads of this peptide / all reads for the bait, averaged over ….

In the case of chain 1 PQLPHLQRMPPDGQSF [chain 1 S9M], the screen value is 0.00474 average fractional NGS count over selection days 2 and 3 (reads of this peptide / all reads for the bait, averaged over ….

chain 1 PQLPHLQRTPPDGQSF [chain 1 S9T]: the screen value was 0.00132 average fractional NGS count over selection days 2 and 3 (reads of this peptide / all reads for the bait, averaged over ….

For chain 1 PQLPHLQRIPPDGQSF [chain 1 S9I], the screen value was 0.00144 average fractional NGS count over selection days 2 and 3 (reads of this peptide / all reads for the bait, averaged over ….

chain 1 PQLPHLQRVPPDGQSF [chain 1 S9V]: the screen value is 0.0149 average fractional NGS count over selection days 2 and 3 (reads of this peptide / all reads for the bait, averaged over ….

For the variant chain 1 PQLPHLQREPPDGQSF [chain 1 S9E], the screen value was 0.00024 average fractional NGS count over selection days 2 and 3 (reads of this peptide / all reads for the bait, averaged over ….

Take chain 1 PQLPHLQRWPPDGQSF [chain 1 S9W]: the screen value is 0.000206 average fractional NGS count over selection days 2 and 3 (reads of this peptide / all reads for the bait, averaged over ….

Take chain 1 PQLPHLQRAPPDGQSF [chain 1 S9A]: the screen value was 0.000813 average fractional NGS count over selection days 2 and 3 (reads of this peptide / all reads for the bait, averaged over ….

Turning to chain 1 PQLPHLQRKPPDGQSF [chain 1 S9K], the screen value is 0.000447 average fractional NGS count over selection days 2 and 3 (reads of this peptide / all reads for the bait, averaged over ….

With chain 1 PQLPHLQRSPGDGQSF [chain 1 P11G], the screen value was 0.0132 average fractional NGS count over selection days 2 and 3 (reads of this peptide / all reads for the bait, averaged over ….

For the variant chain 1 PQLPHLQRSNPDGQSF [chain 1 P10N], the screen value was 0.00386 average fractional NGS count over selection days 2 and 3 (reads of this peptide / all reads for the bait, averaged over ….

Consider chain 1 PQLPHLQRSYPDGQSF [chain 1 P10Y], for which the screen value was 0.000858 average fractional NGS count over selection days 2 and 3 (reads of this peptide / all reads for the bait, averaged over ….

As for chain 1 PQLPHLQRSHPDGQSF [chain 1 P10H], the screen value is 0.0139 average fractional NGS count over selection days 2 and 3 (reads of this peptide / all reads for the bait, averaged over ….

Take chain 1 PQLPHLQRSWPDGQSF [chain 1 P10W]: the screen value is 0.000201 average fractional NGS count over selection days 2 and 3 (reads of this peptide / all reads for the bait, averaged over ….

Regarding chain 1 PQLPHLQRSKPDGQSF [chain 1 P10K], the screen value was 0.00107 average fractional NGS count over selection days 2 and 3 (reads of this peptide / all reads for the bait, averaged over ….

Turning to chain 1 PQLPHLQRSSPDGQSF [chain 1 P10S], the screen value is 0.000405 average fractional NGS count over selection days 2 and 3 (reads of this peptide / all reads for the bait, averaged over ….

Regarding chain 1 PQLPHLQRSGPDGQSF [chain 1 P10G], the screen value was 0.00637 average fractional NGS count over selection days 2 and 3 (reads of this peptide / all reads for the bait, averaged over ….

chain 1 PQLPHLQRSEPDGQSF [chain 1 P10E]: the screen value is 0.00215 average fractional NGS count over selection days 2 and 3 (reads of this peptide / all reads for the bait, averaged over ….

As to chain 1 PQLPHLQRSIPDGQSF [chain 1 P10I], the screen value was 0.00249 average fractional NGS count over selection days 2 and 3 (reads of this peptide / all reads for the bait, averaged over ….

Consider chain 1 PQLPHLQRSDPDGQSF [chain 1 P10D], for which the screen value is 0.000749 average fractional NGS count over selection days 2 and 3 (reads of this peptide / all reads for the bait, averaged over ….

For the variant chain 1 PQLPHLQRSQPDGQSF [chain 1 P10Q], the screen value is 0.00105 average fractional NGS count over selection days 2 and 3 (reads of this peptide / all reads for the bait, averaged over ….

With chain 1 PQLPHLQRSTPDGQSF [chain 1 P10T], the screen value was 0.00166 average fractional NGS count over selection days 2 and 3 (reads of this peptide / all reads for the bait, averaged over ….
